For one data set, the target named is T1, yPolη full-length (Saccharomyces cerevisiae, UniProt Q04049 1-632).
T1 sequence: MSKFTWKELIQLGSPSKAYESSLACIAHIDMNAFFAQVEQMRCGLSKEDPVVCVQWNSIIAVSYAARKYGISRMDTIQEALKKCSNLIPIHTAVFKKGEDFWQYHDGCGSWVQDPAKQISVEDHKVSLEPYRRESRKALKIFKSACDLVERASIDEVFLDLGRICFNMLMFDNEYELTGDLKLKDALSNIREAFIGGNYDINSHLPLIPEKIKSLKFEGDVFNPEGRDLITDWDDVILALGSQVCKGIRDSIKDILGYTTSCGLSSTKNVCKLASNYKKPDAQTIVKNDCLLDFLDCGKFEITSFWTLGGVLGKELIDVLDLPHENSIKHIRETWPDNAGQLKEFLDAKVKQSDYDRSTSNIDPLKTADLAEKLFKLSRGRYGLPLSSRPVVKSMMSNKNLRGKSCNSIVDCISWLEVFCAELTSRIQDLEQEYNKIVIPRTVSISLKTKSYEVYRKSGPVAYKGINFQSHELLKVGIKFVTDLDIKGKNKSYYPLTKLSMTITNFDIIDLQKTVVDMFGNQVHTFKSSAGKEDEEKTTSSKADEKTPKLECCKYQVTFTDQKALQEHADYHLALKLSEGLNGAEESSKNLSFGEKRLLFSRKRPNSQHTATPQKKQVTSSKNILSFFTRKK
In words: EMSA; koff 0.0041 ± 0.0008 s-1 (DNA trap); 23°C, buffer A (composition not in material; without BSA for fluorescence); EMSA 10 nM DNA, 10-450 nM protein, 20 min, 4.5% native gel, 40 mM Tris in running bu.

Data set [1] deals with T2, yPolη truncated (catalytic core) (Saccharomyces cerevisiae, UniProt Q04049 1-513).
T2 sequence: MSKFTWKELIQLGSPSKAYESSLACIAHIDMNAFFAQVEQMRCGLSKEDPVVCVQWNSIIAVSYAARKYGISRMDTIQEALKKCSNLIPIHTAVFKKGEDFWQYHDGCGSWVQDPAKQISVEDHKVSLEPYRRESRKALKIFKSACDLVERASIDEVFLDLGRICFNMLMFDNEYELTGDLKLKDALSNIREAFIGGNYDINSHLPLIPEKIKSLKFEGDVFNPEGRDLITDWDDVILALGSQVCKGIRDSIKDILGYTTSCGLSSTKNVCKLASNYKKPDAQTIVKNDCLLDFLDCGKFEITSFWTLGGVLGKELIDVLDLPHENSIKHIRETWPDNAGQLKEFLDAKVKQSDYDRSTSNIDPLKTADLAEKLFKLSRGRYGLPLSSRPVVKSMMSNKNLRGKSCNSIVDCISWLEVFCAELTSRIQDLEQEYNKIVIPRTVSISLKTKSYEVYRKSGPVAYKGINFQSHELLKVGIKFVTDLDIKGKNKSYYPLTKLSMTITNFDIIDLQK
In words: EMSA; koff 0.008 ± 0.001 s-1 (DNA trap); 23°C, buffer A (composition not in material; without BSA for fluorescence); EMSA 10 nM DNA, 10-450 nM protein, 20 min, 4.5% native gel, 40 mM Tris in running bu.

B1: D-1 21/41-mer (dsDNA)
DNA 1: CGCAGCCGTCCAACCAACTCA
DNA 2: GGACGGCATTGGATCGACGATGAGTTGGTTGGACGGCTGCG
For B1, the Kd was 16 ± 1 nM with yPolη full-length and 34 ± 3 nM in data set [1].
